Results taken from patent publication US7012128B2, “Interaction between cyclin D1 and steroid receptor co-activators and uses thereof in assays” (TopoTarget UK Limited, priority 1998, dated 2006).

Legend:
Type in all cases: cell-based
[1] = tested on: wild type ER; assay: ERE-TATA-luciferase transactivation of wild type ER in COS-7 cells; details: COS-7, 3 μg SRC1-DN, 10 nM ligand
Procedure: FIG. 1. Mapping of the region of cyclin D1 required for ER-mediated transactivation. • (A) The effect of cyclin D1 deletion mutants on ER activation in the presence of ligand. The cyclin D1 derivatives used in this study are shown in the left panel; right side of Figure represents the relative capacity of the mutants to potentiate ERE-dependent transcription. ER-negative COS-7 cells were transfected with expression vectors for wild type ER (200 ng), cyclin D1 or cyclin D1 mutants (2.5 μg), an internal control §-galactosidase plasmid (0.5 μg) and an ERE-TATA-luciferase reporter (3 μg). The effect on ER transactivation of wild type cyclin D1 was set to 100%. These studies were performed in three separate experiments and expressed as mean values with standard deviation less then […]. The alignment of leucine-rich motif of ER with D-type cyclins are shown on the bottom; the leucine-rich motif in cyclin D1 is indicated as a dark box. The identifiers for the sequences shown are as follows: Cyclin D1 (SEQ ID NO:11), Estrogen receptor (SEQ ID NO:12), the Cyclin D2 (SEQ ID NO:13), and the Cyclin D3 (SEQ ID NO:14). • (B) ER activation by D-type cyclins, cyclin D1 L254/255A point mutant (D1-LALA) and SRC-1 in the presence of ligand. COS-7 cells were transfected with D-type cyclin expression vectors, cyclin D1 Leucine-to-Alanine point mutant (D1-LALA) or SRC-1 expression vector together with wild type ER expression vector, an ERE-TATA-luciferase reporter plasmid and the internal control β-galactosidase construct. Data are expressed as relative luciferase activity compared with basal ERE-luciferase activity of wild type ER and are normalized for transfection efficiencies.
FIG. 3. Role of coactivators in cyclin D1—induced transactivation. • (A) Effect of a dominant negative form of SRC-1 (SRC1-DN) on ER transactivation. SRC1-DN encoding amino acids 1245-1441 of SRC-1 (1, 2.5 and 5 μg) was introduced by transient transfection together with wild type ER (200 ng) and was tested for its ability to modulate ERE-dependent transcription. • (B) Effect of SRCI-DN on SRC-1 and TIF 2 mediated ER transactivation. SRC-1 (3 μg) or TIF-2 (3 μg) were transfected with SRC1-DN (3 μg) and tested for ER transactivation. • (C) Effect of SRC1-DN on cyclin D1-induced transactivation of ER 1-535 mutant. Cyclin D1 was cotransfected with SRC1-DN (1, 2.5, 5 μg) and tested for its effect on an ER harboring a deletion of coactivator binding site in helix 12 (ER 1-535). • (D) Effect of SRC1-DN on cyclin D1-induced transactivation of ER L543/544A mutant. Cyclin D1 and SRC1-DN (1, 2.5, 5 gg) were transfected and tested for the activity of ER helix 12 point mutant (ER L543/544A). The transient transfections (A-C) were performed in COS-7 cells, which were maintained in DMEM with 10 nM ligand. The relative activity was calculated by normalizing to the internal control and was divided by luciferase activity of ER (mutant) in the presence of ligand. The transfection for each set of conditions were done at least in four independent experiments and expressed as average ±SD.
To study how cyclin D1 activates ER, cyclin D1 deletion mutants were tested for their effect on ER-transactivation. COS-7 cells were transfected with cyclin D1 mutants, together with ER and a luciferase reporter gene construct driven by a minimal TATA promoter linked to an estrogen response element (ERE). […] This part of the protein is not involved in CDK interaction and is poorly conserved among the different cyclins. […] To test the relevance of this leucine-rich domain of cyclin D1 in ER activation, a cyclin D1 mutant was constructed in which leucines 254 and 255 were mutated to alanines (D1 L254/255A). This mutation in cyclin D1 is similar to the mutation in ER (ER L543/544A) that interferes with coactivator binding to AF-2 (Danielian et al., 1992). […]

[2] = tested on: ER 1-535 and ER L543/544A mutants; assay: ERE-TATA-luciferase transactivation of AF-2 mutant ERs in COS-7 cells; details: COS-7, 1, 2.5, 5 μg SRC1-DN, 10 nM ligand
Procedure: FIG. 2. Effect of cyclin D1 on helix 12 mutants of ER. The effect of cyclin D1 on ER mutants was tested in COS-7 cells (A, B) and in U2-OS cells (C, D) in the presence of ligand. An ERE-TATA-luciferase reporter construct was used in transient transfections together with cyclin D1 and ER 1-535 (A, C) or ER L543/544A mutants (B, D). β-Galactosidase served as an internal control. The reporter activity was determined both in the presence (black bars) and in the absence (white bars) of 10 nM 17β-estradiol. The relative luciferase activity was calculated by normalizing to the b-galactosidase activity. The relative reporter activity of wild type ER in the presence of ligand was used as a reference and set at 100%. […] The transfection were performed in at least five separate experiments and expressed as average ±SD.
FIG. 3. Role of coactivators in cyclin D1—induced transactivation. • (A) Effect of a dominant negative form of SRC-1 (SRC1-DN) on ER transactivation. […] The relative activity was calculated by normalizing to the internal control and was divided by luciferase activity of ER (mutant) in the presence of ligand. The transfection for each set of conditions were done at least in four independent experiments and expressed as average ±SD. […]

[3] = target: E2F-1 transcription factor (Homo sapiens, UniProt Q01094); assay: Effect on E2F-1 transcription factor (data not shown)
Sequence of E2F-1 transcription factor (Q01094 whole entry): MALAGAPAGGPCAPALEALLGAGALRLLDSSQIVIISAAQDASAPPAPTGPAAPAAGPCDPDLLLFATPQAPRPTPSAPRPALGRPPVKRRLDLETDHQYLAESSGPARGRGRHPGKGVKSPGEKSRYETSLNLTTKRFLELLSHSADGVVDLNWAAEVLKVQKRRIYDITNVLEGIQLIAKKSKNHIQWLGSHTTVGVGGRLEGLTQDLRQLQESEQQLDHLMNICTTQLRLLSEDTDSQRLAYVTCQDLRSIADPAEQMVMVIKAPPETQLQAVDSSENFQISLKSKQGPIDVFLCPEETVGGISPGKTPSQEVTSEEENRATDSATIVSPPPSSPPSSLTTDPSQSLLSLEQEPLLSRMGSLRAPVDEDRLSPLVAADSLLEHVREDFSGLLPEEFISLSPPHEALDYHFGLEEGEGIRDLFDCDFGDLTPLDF

B1: SRC1-DN: dominant negative mutant of SRC-1 encoding amino acids 1245-1441 of SRC-1 (protein, UniProt Q15788 1245-1441, looked up, fragment)
chain: FAPSLSPGSSMVPMPIPPPQSSLLQQTPPASGYQSPDMKAWQQGAIGNNNVFSQAVQNQPTPAQPGVYNNMSITVSMAGGNTNVQNMNPMMAQMQMSSLQMPGMNTVCPEQINDPALRHTGLYCNQLSSTDLLKTEADGTQQVQQVQVFADVQCTVNLVGGDPYLNQPGPLGTQKPTSGPQTPQAQQKSLLQQLLTE
With B1 the “effect on SRC-1 and TIF2 mediated ER transactivation” value [1] was “inhibited”, the “effect on cyclin D1-induced activation of the ER AF-2 mutants” value [2] was “markedly repressed” and the “effect on E2F-1 transcription factor” value [3] was “inactive”.
